Here are results for 1 molecule from US20210140973A1 (NITTO BOSEKI, published 2021).

Residue numbers refer to the chain shown, from its start.

Common to all, as to assay: Western blot: E. coli lysate with the GST-tagged peptide, SDS-PAGE, PVDF membrane, POD-labelled antibody diluted 1000-fold, ECL
Test [1] has as its target T1, GST-tagged peptide H2 (positions 1 to 274 of the human IgG4 heavy chain constant region) (human, UniProt P01861 1-274 = IgG part).
T1 construct: E. coli lysate on Western blot; not shown: GST tag (glutathione S-transferase) linked to the N terminal, expressed from vector pGEX-6P-1
How it is done:
(§1) Based on the designed amino acid sequences, base sequences suitable for expressing protein in E. coli were designed according to the protocol of GenScript Corporation, thereby preparing vector pGEX-6P-1 (GE Healthcare Bio-Sciences Corp.) to which the respective base sequences are inserted. The prepared expression plasmid was introduced to E. coli BL 21 strain, thereby obtaining a transformant. The transformant was cultured by an ordinary method and a protein expression was induced by IPTG. After the cells were collected by centrifugation, the cells were dissolved with an ordinary lysis solution, and subjected to ultrasonication. 6 μL of an SDS sample buffer solution was added to 6 μL of the obtained lysate. The respective prepared samples were subjected to a heat treatment at 95° C. for 5 minutes. 10 μL of the E. coli disrupted sample was added to each well of 5 to 20% electrophoresis gel (Atto Corportation) to which an SDS electrophoresis buffer solution was added. Similarly, a molecular weight standard (Bio-Rad Laboratories, Inc.) was added to each well and electrophoresed. After completing the electrophoresis, the electrophoresis gel was transcribed to a PVDF membrane (Millipore Corporation) with a transfer buffer solution. The PVDF membrane was immersed in a membrane blocking buffer solution, and then shaking was carried out at room temperature for 30 minutes. Amino groups of MaI4-08, MaI4-09, and MaI4-05-produced antibodies were subjected to a POD labeling treatment with a POD labeling kit (Dojindo Molecular Technologies, Inc.). The obtained labeled antibodies each were diluted 1000-fold by PBST. After the PVDF membrane was cleaned with PBST, the antibody solutions prepared each were added to the PVDF membrane, and then the reaction was performed at room temperature for 1 hour. After the PVDF membrane was cleaned by PBST, a signal was detected with ECL Prime Western Blotting Detection Reagents (GE Healthcare) with Image Quant Las4000.

The target of test [2] is T2, GST-tagged peptide H3 (positions 1 to 220 of the human IgG4 heavy chain constant region) (human, UniProt P01861 1-220 = IgG part).
T2 construct: E. coli lysate on Western blot; not shown: GST tag (glutathione S-transferase) linked to the N terminal, expressed from vector pGEX-6P-1
T2 sequence (P01861 1-220): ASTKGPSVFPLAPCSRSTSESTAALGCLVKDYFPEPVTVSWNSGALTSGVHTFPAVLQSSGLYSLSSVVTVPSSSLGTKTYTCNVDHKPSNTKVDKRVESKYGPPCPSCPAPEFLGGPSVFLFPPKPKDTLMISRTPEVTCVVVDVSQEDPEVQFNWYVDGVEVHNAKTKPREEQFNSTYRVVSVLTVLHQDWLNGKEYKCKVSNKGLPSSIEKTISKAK
How it is done: as §1

Test [3] concerns the target T3, GST-tagged peptide H4 (positions 1 to 165 of the human IgG4 heavy chain constant region) (human, UniProt P01861 1-165 = IgG part).
T3 construct: E. coli lysate on Western blot; not shown: GST tag (glutathione S-transferase) linked to the N terminal, expressed from vector pGEX-6P-1
How it is done:
as §1

In test [4] the target is T4, GST-tagged peptide H6 (positions 1 to 55 of the human IgG4 heavy chain constant region) (human, UniProt P01859 1-55 = IgG part).
T4 construct: E. coli lysate on Western blot; not shown: GST tag (glutathione S-transferase) linked to the N terminal, expressed from vector pGEX-6P-1
T4 sequence (P01859 1-55): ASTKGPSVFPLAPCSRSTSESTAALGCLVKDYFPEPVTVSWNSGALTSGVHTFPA
How it is done: as §1

Test [5] addresses T5, GST-tagged peptide H7 (positions 56 to 327 of the human IgG4 heavy chain constant region) (human, UniProt P01861 56-325 = IgG part).
T5 construct: E. coli lysate on Western blot; not shown: GST tag (glutathione S-transferase) linked to the N terminal, expressed from vector pGEX-6P-1
How it is done: as §1

In test [6] the target is T6, GST-tagged peptide H10 (positions 221 to 327 of the human IgG4 heavy chain constant region, CH3 region) (human, UniProt P01861 221-325 = IgG part).
T6 construct: E. coli lysate on Western blot; not shown: GST tag (glutathione S-transferase) linked to the N terminal, expressed from vector pGEX-6P-1
On the procedure:
as §1

For test [7], the target named is T7, GST-tagged peptide H11 (positions 275 to 327 of the human IgG4 heavy chain constant region) (human, UniProt P01861 275-325 = IgG part).
T7 construct: E. coli lysate on Western blot; not shown: GST tag (glutathione S-transferase) linked to the N terminal, expressed from vector pGEX-6P-1
How it is done:
as §1

For test [8], the target named is T8, GST-tagged peptide H12 (positions 99 to 220 of the human IgG4 heavy chain constant region) (human, UniProt P01861 99-220 = IgG part).
T8 construct: E. coli lysate on Western blot; not shown: GST tag (glutathione S-transferase) linked to the N terminal, expressed from vector pGEX-6P-1
T8 sequence (P01861 99-220): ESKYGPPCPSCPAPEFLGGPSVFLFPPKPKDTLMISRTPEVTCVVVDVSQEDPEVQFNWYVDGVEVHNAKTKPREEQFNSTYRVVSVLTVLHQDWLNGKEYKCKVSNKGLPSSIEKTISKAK
How it is done:
as §1

Test [9] has as its target T9, GST-tagged peptide H31 (H10 with arginine for glutamine at position 235) (human, UniProt P01861 221-325 = IgG part).
T9 construct: not shown: GST tag (glutathione S-transferase) linked to the N terminal, expressed from vector pGEX-6P-1
T9 chain: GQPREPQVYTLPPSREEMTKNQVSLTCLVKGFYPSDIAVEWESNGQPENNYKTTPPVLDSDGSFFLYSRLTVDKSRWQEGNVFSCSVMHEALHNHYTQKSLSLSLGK
On the procedure: as §1

Test [10] addresses T10, GST-tagged peptide H33 (H10 with glutamine for glutamic acid at position 299) (human, UniProt P01861 221-325 = IgG part).
T10 construct: not shown: GST tag (glutathione S-transferase) linked to the N terminal, expressed from vector pGEX-6P-1
T10 chain: T9 chain with R15Q, E79Q
On the procedure:
as §1

In test [11] the target is T11, GST-tagged peptide H34 (H10 with proline for leucine at position 325) (human, UniProt P01861 221-324 = IgG part).
T11 construct: not shown: GST tag (glutathione S-transferase) linked to the N terminal, expressed from vector pGEX-6P-1
How it is done:
as §1

In test [12] the target is T12, GST-tagged peptide H36 (positions 221 to 327 with the human IgG4 specific sequence replaced by the … (human, UniProt P0DOX5 343-449 = IgG part)).
T12 construct: not shown: GST tag (glutathione S-transferase) linked to the N terminal, expressed from vector pGEX-6P-1
How it is done: as §1

T1 sequence (P01861 1-274): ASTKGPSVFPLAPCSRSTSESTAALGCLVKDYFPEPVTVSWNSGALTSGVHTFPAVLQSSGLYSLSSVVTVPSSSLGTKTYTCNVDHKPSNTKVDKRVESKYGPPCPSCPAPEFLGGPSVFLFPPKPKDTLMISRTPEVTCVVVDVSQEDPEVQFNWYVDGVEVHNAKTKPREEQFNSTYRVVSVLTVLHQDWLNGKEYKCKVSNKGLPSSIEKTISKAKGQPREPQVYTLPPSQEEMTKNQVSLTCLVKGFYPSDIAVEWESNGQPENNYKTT
T3 sequence (P01861 1-165): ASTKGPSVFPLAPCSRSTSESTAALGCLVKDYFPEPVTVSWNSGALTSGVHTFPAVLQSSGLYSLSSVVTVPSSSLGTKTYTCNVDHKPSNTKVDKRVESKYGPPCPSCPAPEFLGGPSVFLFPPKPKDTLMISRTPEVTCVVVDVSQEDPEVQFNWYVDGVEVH

B1: MaI4-08-produced antibody (antibody, IgG1, V domains shown)
VH: EVQLQQSGPELVKPGTSVKMSCKASGYIFTSYILHWVKQKPGQGLEWIAYINPYNDGTKYKEKFKGKGTLTSDKSSSTAYMELSSLTSEDSAVYYCARSGGGYGNYAWFAYWGPGTLVTVST
VL: DIQMTQSPSSLSASLGERVSLTCRASQDIGSSLNWLQQEPDGTIKRLIYATSSLDSGVPKRFSGSRSGSDYSLTISSLESEDFVDYYCLQYASYPPTFGAGTKLELK
notes: Purified on protein G from hybridoma culture supernatant; POD-labelled for the Western blots
On to B1, for which the binding result in test [1] is given as “no binding”; in [2] it was “no binding”; in test [3] it was “no binding”; in [4] it was “no binding”; in test [5] it was “binds”; in test [6], “binds”. In addition, the binding result in test [7] is on record as “no binding”; in test [8] it was “no binding”; in [9], “binds”; in [10], “no binding”; in test [11], “binds”; in test [12], “no binding”.
